Data published in the domain aggregation screens of Martell et al. (2025).

Experiment: soluble fraction after stress (log2 fold change); higher = more stays soluble; pooled small domains, quantitative proteomics
Conditions: stress: 75 degC
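Note: 20 min heating vs room temperature control held 20 min.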

Sequence	soluble fraction (log2)
HMKYKKYKLLKDLPTFKAGQLAYISKTGNLIAGTPENQKTTETGLIIMIYHETTLKKFPNILTEWFEEIE	-3.3
HMKYNGDRPVFNDDVAWAKWMLENPAKITSHDKENLSSMLKKPEVVMLFEAEDLSVPDLRTLAKE	≥ 1.04
HMKYNYEAQQSDELSLVKGSRIHVLEKSSDGWWKGEIDNVVGWFPS	-0.239
HMKYRLLGENLQTIRKARGMKQQELADQIGINMQSLSKIERGLNYPTFETLEKIMNALGITPNELLSG	-0.82
HMKYRPGDVVTLRVARMGEMGAFLDAGTGNTNDDILLHKMQQTEEIKAGQDVKVYLYLDPNRRLTASMKL	-0.835
HMKYSNDEVERDLYVRGVIYQIGDLVENKLDGTSGEVVRRGPNYVQYTDGENFYKAFLSALQEQK	-0.369
HMKYSYAELTKLQEQIAQDRNAPLTVPNALGIGLDERNNVIEITVNIADEAAAKAYYLQKYGDRISLKTTD	-0.317
HMKYTEEIFNILSRGGFISANSVSSTVKRYYDALEEDFTEYYDYYKGIGFYLEAGNGYYLFTR	-3.41
HMKYTVKSPLPGVIMSVLVKVGDTVKASDTVISLEAMKMENAIHAGRDGKVTSIDVNVGDSVLEGHTLVTI	-0.594
HMLAAGTPLTVVTESSNLNIRQEPSTEAAVVGKAAKGEIVTLVEQTSGEWWKVSTKDGEEGYAYSRYL	0.678
HMLAAGTSLTVDTESSNLNIRQEPSTEGVILGKAAKGEVVTLVEQSSDEWWKIKTKDGEEGYAYARYLR	0.175
HMLADRANMAPAALRQIMTAIDGGNVTPKQIESATGMAHATVARALRKMLDDGLIANDGKGRYTVLT	-0.212
HMLADTNIHTIALKHRLANEVVEQVRPFLPETATIRAYDNMLILKSDRATLANVEQLIKKLDT	0.0428
HMLALVREQIERNVSNPTDEDIRKIRHDVMEVITRAGADAATVDIAIEIDSQKNILRAIATGATEL	-0.0966
HMLAMHVVESVGGAEQFTKLQNFAKTQNADYQKMWNDTMNSGNVLAIKTMLSGIQSDMIAVQ	-0.276
HMLAQDVIVKQDGGTILSKVLEIGTQEIAYKKWNSQDGPVYKIAKDQVLSVNYQNGEVDRFA	-0.00975

Sequence	soluble fraction (log2)
HMLAQISDEGAIGAVVARVLDAHPNEVARYHAGEEKVAKFLMGAAMRELRGKGDPAVVQRLLSEGLDARRV	-0.00832
HMLARPTANELVKEMQRRAKEQRTELPPDAARDLLERSGQDQFLLGNEVDKLAALSGYTTITREMVAQAGT	0.247
HMLAVPADFAEKLQSLRSQLASDDLDASDAFGRLQPFIKALYPAQLEALRKAVDDFDFVEATRLIDQLPQ	-0.376
HMLAYQRTYEKILEDLRNDVYPVNSLLPPEPKLEEIYHVSRTTVRRAIAQLADEGYVKVKQGYGTVVLKN	-2.02
HMLDEPPVSQTLTTYDREHMALYLRLLDSARDGADWREAVQILFGLDPTRDPLRSRHVHDTHLARARWM	-0.0384
HMLDFGQEDSEAVSEIILVLGRYWMDFSHKKYPEAEGSALRHKGISHIFTVLKPYLTSATAQLIEQRLQQ	-0.0669
HMLDIQKKGENIAYIEGAGDVIPESLKQIGYHVVTIAPKDINAETLSRFDAVVVGIRAYNTVEDL	0.0708
HMLDKIRTYIDNSFTGVNETKKVKELKDELFENLKEKYNDQIQDGKTEQEAYNSVISGIGDLSELIESVK	≥ 1.04
HMLDKKKHLEQGRKIIEDQLAKYKIQPSFDTLKKLSAYYGLNNKEQLYAQVGMGFLELENLDEILQ	0.307
HMLDLPVRTINGRQYYYYEVRNRETVYGLSKRLGVTREEIVRYNPSMADGLKRGAILYFPVDEFSDRI	-2.84
HMLDLSDFEVVRDLYLSEQIWNVGDLIIARSKKDDTYKAWEIIRKGTNYVTGIDESHKVEKIWLHDILI	-1.15
HMLDSPHDDLNRKIVQMLQNDGRLPYKDIAEVLSVSEGTVRNRVQRMRDAGMLNIVALIDPMAI	-0.0197
HMLDTPLTARELDVLYLMRQRMSAKEIAKQLGIATMTVNRHAANLYRKLGVNTRWDAVYRAEEVGILPP	-1.45
HMLDVNLIFSRPGFSLSAAFTLHAGGITVLRGDSGSGKTTLADLLSGAIAPQKGRILSDGDIWFDAASGIN	0.108
HMLDYITLSPQELGKLLSAGNGDAAMVYLYMKATGDVTLKQAETQLGMTNQNLAWAESLLKRLGLMD	-1.9
